Experimental data published in patent US20230190875A1 (ACCELERON PHARMA, published 2023).

T1: BMP6 (UniProt P22004 382-513, limits assumed)
T1 sequence (looked up): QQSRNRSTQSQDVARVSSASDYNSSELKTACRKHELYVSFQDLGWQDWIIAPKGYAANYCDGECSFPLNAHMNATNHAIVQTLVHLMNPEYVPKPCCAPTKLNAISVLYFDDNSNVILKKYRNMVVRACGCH

T2: activin B (UniProt P09529 293-407)
T2 sequence (looked up): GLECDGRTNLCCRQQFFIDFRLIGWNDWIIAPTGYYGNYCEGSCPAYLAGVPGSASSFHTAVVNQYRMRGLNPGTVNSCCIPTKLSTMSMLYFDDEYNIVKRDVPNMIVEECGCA

T3: activin A (UniProt P08476 311-426)
T3 sequence (looked up): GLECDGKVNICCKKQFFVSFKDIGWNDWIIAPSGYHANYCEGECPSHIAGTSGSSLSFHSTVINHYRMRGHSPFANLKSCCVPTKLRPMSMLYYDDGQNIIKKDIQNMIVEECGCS

B1: ActRIIB homodimer Fc fusion (Fc fusion, UniProt Q13705 20-134, looked up)
chain: GRGEAETRECIYYNANWELERTNQSGLERCEGEQDKRLHCYASWRNSSGTIELVKKGCWLDDFNCYDRQECVATEENPQVYFCCCEGNFCNERFTHLPEAGGPEVTYEPPPTAPT
notes: Comparator; also called homodimeric ActRIIB Fc fusion; homomeric ActRIIB-Fc; not shown: linker and Fc domain of the homodimer are not described

Assays:
Experiment in all cases: SPR (Biacore); Fc fusion captured by anti-Fc antibody, ligand injected
BMP6 = target: T1, BMP6
Protocol: (§1) A Biacore™-based binding assay was used to compare ligand binding selectivity of the single-arm ActRIIB heterodimer Fc fusion described above with that of ActRIIB homodimer Fc fusion. Single-arm ActRIIB […] Fc fusion and ActRIIB homodimer Fc fusion were independently captured onto the system using an anti-Fc antibody. Ligands were injected and allowed to flow over the captured receptor protein.

activin B = target: T2, activin B
Protocol: as §1

activin A = target: T3, activin A
Protocol: as §1

[1] = target: B1
Protocol: as §1

[2] = target: T4, ActRIIA homodimer Fc fusion (UniProt P27037 21-135)
T4 construct: Comparator; also called homodimeric ActRIIA Fc fusion; not shown: linker and Fc domain of the homodimer are not described
T4 sequence (P27037 21-135): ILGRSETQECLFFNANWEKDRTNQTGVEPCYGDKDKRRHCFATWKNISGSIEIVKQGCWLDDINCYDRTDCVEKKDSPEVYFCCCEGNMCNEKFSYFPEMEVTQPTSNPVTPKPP
Protocol: A Biacore™-based binding assay was used to compare ligand binding selectivity of the single-arm ActRIIA heterodimer Fc fusions described above with that of an ActRIIA homodimer Fc fusion. The single-arm ActRIIA heterodimer Fc fusions and ActRIIA homodimer Fc fusions were independently captured onto the system using an anti-Fc antibody. Ligands were injected and allowed to flow over the captured receptor protein.

Kd [1] [nM] | koff [1] [s⁻¹] | kon [1] [M⁻¹ s⁻¹] | Kd [2] [nM] | kon [2] [M⁻¹ s⁻¹] | also measured | Binder
– | – | – | – | – | Kd (BMP6): 0.21 nM; koff (BMP6): 0.0068 s⁻¹; kon (BMP6): 3.2e+07 M⁻¹ s⁻¹; Kd (activin B): 0.02 nM; koff (activin B): 0.0001 s⁻¹; kon (activin B): 5.1e+06 M⁻¹ s⁻¹; Kd (activin A): 0.019 nM; koff (activin A): 0.00023 s⁻¹; kon (activin A): 1.2e+07 M⁻¹ s⁻¹ | B1
1.5 | 0.0022 | 1.4e+06 | – | – | – | GDF3 (ligand, UniProt Q9NR23 251-364, looked up, also called VGR2) AAIPVPKLSCKNLCHRHQLFINFRDLGWHKWIIAPKGFMANYCHGECPFSLTISLNSSNYAFMQALMHAVDPEIPQAVCIPTKLSPISMLYQDNNDNVILRHYEDMVVDECGCG
0.078 | 0.0011 | 1.4e+07 | – | – | – | BMP9 (ligand, UniProt Q9UK05 320-429, looked up, also called GDF2) SAGAGSHCQKTSLRVNFEDIGWDSWIIAPKEYEAYECKGGCFFPLADDVTPTKHAIVQTLVHLKFPTKVGKACCVPTKLSPISVLYKDDMGVPTLKYHYEGMSVAECGCR
0.011 | 0.00026 | 2.3e+07 | 0.086 | 2.9e+07 | – | BMP10 (ligand, UniProt O95393 317-424, looked up) NAKGNYCKRTPLYIDFKEIGWDSWIIAPPGYEAYECRGVCNYPLAEHLTPTKHAIIQALVHLKNSQKASKACCVPTKLEPISILYLDKGVVTYKFKYEGMAVSECGCR
0.002 | 0.00011 | 5e+07 | 0.028 | 2.6e+07 | koff [2]: 0.00072 s⁻¹ | GDF11 (ligand, UniProt O95390 299-407, looked up, also called BMP11) NLGLDCDEHSSESRCCRYPLTVDFEAFGWDWIIAPKRYKANYCSGQCEYMFMQKYPHTHLVQQANPRGSAGPCCTPTKMSPINMLYFNDKQQIIYGKIPGMVVDRCGCS
